In general, stoichiometry N refers to a count of units in the complex or per binding partner.

Residue numbers refer to the chain shown, from its start. Names and notes keep the numbering of the source.

This data set deals with the molecule itself. Kind of data set: cryo-EM structure; detergent-purified protein (6 mg/mL) incubated with 100 μM CPIII, 2 mM MgCl2, 2 mM ATP and 2 mM sodium orthovanadate for 30 min at 22 °C; single-particle analysis.

B1: core region of human ABCB6 (residues 206-842, without TMD0) (domain or fragment, UniProt Q9NP58 206-842, looked up)
chain: APGLRPQSYTLQVHEEDQDVERSQVRSAAQQSTWRDFGRKLRLLSGYLWPRGSPALQLVVLICLGLMGLERALNVLVPIFYRNIVNLLTEKAPWNSLAWTVTSYVFLKFLQGGGTGSTGFVSNLRTFLWIRVQQFTSRRVELLIFSHLHELSLRWHLGRRTGEVLRIADRGTSSVTGLLSYLVFNVIPTLADIIIGIIYFSMFFNAWFGLIVFLCMSLYLTLTIVVTEWRTKFRRAMNTQENATRARAVDSLLNFETVKYYNAESYEVERYREAIIKYQGLEWKSSASLVLLNQTQNLVIGLGLLAGSLLCAYFVTEQKLQVGDYVLFGTYIIQLYMPLNWFGTYYRMIQTNFIDMENMFDLLKEETEVKDLPGAGPLRFQKGRIEFENVHFSYADGRETLQDVSFTVMPGQTLALVGPSGAGKSTILRLLFRFYDISSGCIRIDGQDISQVTQASLRSHIGVVPQDTVLFNDTIADNIRYGRVTAGNDEVEAAAQAAGIHDAIMAFPEGYRTQVGERGLKLSGGEKQRVAIARTILKAPGIILLDEATSALDTSNERAIQASLAKVCANRTTIVVAHRLSTVVNADQILVIKDGCIVERGRHEALLSRGGVYADMWQLQQGQEETSEDTKPQTMER
notes: Homodimer in the cryo-EM maps; also called hABCB6^core; ABCB6^core; not shown: eGFP, C-terminal, cleaved; 10×His, C-terminal, cleaved
On to B1, for which the binding result is “binds”.

B2: hABCB6^core-W546A mutant (domain or fragment, human, UniProt Q9NP58 206-842, looked up)
chain: B1 chain with W341A
notes: Homodimer in the cryo-EM structures; Used in detergent micelles and in nanodiscs (porcine brain polar lipids, hApoA-I (Δ1-43) scaffold); source: also reconstituted into nanodiscs; not shown: eGFP, C-terminal, cleaved; 10×His, C-terminal, cleaved
With B2, the “stoichiometry N” value was 2.
